Source: PMC4191421
Several values for one entry are separate records, joined by “and”; a condition that tells them apart may be missing. Equal values may be shown once.

Columns and labels:
WRN (human) = WRN (human) (UniProt Q14191); assay: smFRET (GQ unfolding); conditions: 50 mM Na+, strand 2 is RNA, smFRET: 150 mM K+ (or 50 mM K+, 50/150 mM Na+), 5 mM Mg2+, pH 7.5, EMSA: 50 mM K+, 50 mM Tris-HCl pH 7.5, 1 mM DTT, 22 C
[1] = biological target: BLM RecQ-core (core-BLM) (human) (UniProt P54132); assay: smFRET (GQ unfolding); conditions: smFRET: 150 mM K+ (or 50 mM K+, 50/150 mM Na+), 5 mM Mg2+, pH 7.5, EMSA: 50 mM K+, 50 mM Tris-HCl pH 7.5, 1 mM DTT, 22 C; for binding signal (% unfolded at 25 nM): 50 mM Na+; for binding signal: 150 mM K+, saturating BLM
[2] = biological target: BLM RecQ-core (core-BLM) (human) (UniProt P54132); assay: smFRET (GQ unfolding titration, Langmuir); conditions: strand 2 is RNA, smFRET: 150 mM K+ (or 50 mM K+, 50/150 mM Na+), 5 mM Mg2+, pH 7.5, EMSA: 50 mM K+, 50 mM Tris-HCl pH 7.5, 1 mM DTT, 22 C
[3] = biological target: BLM RecQ-core (core-BLM) (human) (UniProt P54132); assay: smFRET; conditions: smFRET: 150 mM K+ (or 50 mM K+, 50/150 mM Na+), 5 mM Mg2+, pH 7.5, EMSA: 50 mM K+, 50 mM Tris-HCl pH 7.5, 1 mM DTT, 22 C
[4] = biological target: BLM RecQ-core (core-BLM) (human) (UniProt P54132); assay: smFRET; conditions: strand 2 is RNA, smFRET: 150 mM K+ (or 50 mM K+, 50/150 mM Na+), 5 mM Mg2+, pH 7.5, EMSA: 50 mM K+, 50 mM Tris-HCl pH 7.5, 1 mM DTT, 22 C
[5] = nt-free, 150 mM Na+, strand 2 is RNA

Sequence of BLM RecQ-core (core-BLM) (human) (P54132 642-1290): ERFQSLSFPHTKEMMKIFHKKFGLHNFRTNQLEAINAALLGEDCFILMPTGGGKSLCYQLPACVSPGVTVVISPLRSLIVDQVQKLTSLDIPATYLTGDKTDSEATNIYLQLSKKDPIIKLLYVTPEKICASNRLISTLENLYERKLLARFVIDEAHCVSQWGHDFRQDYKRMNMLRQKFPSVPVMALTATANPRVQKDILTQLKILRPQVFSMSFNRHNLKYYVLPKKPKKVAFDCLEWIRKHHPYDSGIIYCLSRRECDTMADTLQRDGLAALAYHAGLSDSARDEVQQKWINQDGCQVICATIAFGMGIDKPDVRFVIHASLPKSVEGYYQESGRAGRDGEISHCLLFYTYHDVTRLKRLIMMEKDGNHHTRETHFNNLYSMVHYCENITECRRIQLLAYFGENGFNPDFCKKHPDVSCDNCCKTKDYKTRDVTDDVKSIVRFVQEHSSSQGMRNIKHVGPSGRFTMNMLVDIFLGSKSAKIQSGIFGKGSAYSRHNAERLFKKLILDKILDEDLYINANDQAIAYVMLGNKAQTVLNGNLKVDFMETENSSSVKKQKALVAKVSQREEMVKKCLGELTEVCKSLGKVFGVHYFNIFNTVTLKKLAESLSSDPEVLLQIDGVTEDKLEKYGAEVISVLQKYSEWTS
Sequence of WRN (human) (Q14191 whole entry): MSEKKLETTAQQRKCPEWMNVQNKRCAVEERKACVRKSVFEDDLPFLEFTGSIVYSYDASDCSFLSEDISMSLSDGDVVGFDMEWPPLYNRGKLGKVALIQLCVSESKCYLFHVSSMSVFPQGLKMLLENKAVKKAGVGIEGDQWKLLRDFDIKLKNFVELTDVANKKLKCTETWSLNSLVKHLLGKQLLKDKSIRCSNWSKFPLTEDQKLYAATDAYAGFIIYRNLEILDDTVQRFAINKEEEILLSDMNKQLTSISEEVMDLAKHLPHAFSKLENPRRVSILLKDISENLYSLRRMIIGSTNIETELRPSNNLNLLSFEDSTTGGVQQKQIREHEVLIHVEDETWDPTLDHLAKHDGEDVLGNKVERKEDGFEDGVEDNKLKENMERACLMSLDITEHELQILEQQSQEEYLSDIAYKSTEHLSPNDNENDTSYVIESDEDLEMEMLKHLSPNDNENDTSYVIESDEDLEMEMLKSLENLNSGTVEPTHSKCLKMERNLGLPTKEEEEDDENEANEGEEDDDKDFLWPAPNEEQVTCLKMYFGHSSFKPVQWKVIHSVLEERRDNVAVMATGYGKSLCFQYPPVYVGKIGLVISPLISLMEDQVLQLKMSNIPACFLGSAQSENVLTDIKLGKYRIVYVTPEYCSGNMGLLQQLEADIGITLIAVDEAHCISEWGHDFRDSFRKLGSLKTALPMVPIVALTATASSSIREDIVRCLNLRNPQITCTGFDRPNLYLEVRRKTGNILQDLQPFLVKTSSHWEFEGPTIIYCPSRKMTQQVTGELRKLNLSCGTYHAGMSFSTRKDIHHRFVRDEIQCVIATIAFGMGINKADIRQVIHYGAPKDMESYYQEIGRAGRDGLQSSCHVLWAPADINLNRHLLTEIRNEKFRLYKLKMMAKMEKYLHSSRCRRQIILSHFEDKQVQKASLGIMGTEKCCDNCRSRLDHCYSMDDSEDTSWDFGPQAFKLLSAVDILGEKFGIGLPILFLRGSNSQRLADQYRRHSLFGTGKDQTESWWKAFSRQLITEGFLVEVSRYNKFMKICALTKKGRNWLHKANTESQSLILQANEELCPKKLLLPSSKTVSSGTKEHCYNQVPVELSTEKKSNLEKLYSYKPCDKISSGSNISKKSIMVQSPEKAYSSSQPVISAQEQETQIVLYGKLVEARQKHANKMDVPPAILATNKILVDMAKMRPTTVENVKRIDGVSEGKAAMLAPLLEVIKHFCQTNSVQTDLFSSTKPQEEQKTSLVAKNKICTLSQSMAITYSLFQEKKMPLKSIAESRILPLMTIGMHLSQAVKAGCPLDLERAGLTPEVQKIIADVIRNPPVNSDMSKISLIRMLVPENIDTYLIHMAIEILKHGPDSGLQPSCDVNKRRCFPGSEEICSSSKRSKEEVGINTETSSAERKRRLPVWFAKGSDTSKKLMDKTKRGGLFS

For “TGGCGACGGCAGCGAGGCTAGGGTTAGGGTTAGGGTTAGGGTTTTTTTTTTTT / GCCUCGCUGCCGUCGCCA [pd-hGQ12T]”, the binding signal (% unfolded at 25 nM) (WRN (human); ATPgS) was 25, the binding signal (% unfolded at 25 nM) (WRN (human); nt-free) was 8 and the binding signal (% unfolded at 25 nM) ([1]; ATPgS, strand 2 is RNA) was 25. For the same sequence, the binding signal (% unfolded at 25 nM) ([1]; nt-free, strand 2 is RNA) was 18, the binding signal (% unfolded at 300 nM) [1, 5] was 17 and the binding signal (% unfolded at 1000 nM) [1, 5] was 38. The K half ([2]; 1 mM ADP, 150 mM K+, alpha 32%) was 55 nM, the K half ([2]; 1 mM ATPgS, 150 mM K+, alpha 53%) was 108 nM and the K half ([2]; nt-free, 50 mM K+, alpha 55%) was 28 nM. For the same sequence, the K half ([2]; nt-free, 150 mM K+, alpha 49%) was 305 nM.

“TGGCGACGGCAGCGAGGCTTGGGTGGGTGGGTGGGTTTTTTTTTTTT / GCCUCGCUGCCGUCGCCA [pd-3Ly1Lp12T]” was tested, and the binding signal (% unfolded at 1 uM) ([1]; strand 2 is RNA) was 46 and 58.

With “TGGCGACGGCAGCGAGGCTTTTTTTTTTTTTTT / GCCUCGCUGCCGUCGCCA [pd-polyT15]” the binding signal (% bound at 1 uM) ([3]; 1 mM ADP, 150 mM K+, strand 2 is RNA) was 12, the binding signal (fold higher Keq in 150 vs 50 mM Na+) ([3]; nt-free, strand 2 is RNA) was 4.7 and the binding signal (% bound at 1 uM) ([3]; strand 2 is RNA) was 21. For the same sequence, the binding signal (% bound at 1 uM) [4] was 36.

Work on “TGGCGACGGCAGCGAGGCTAGGGTTAGGGTTAGGGTTAGGGTTTTTTTTTTTTTTT / GCCUCGCUGCCGUCGCCA [pd-hGQ15T]” yielded a binding signal ([1]; ADP, strand 2 is RNA) of 22 % unfolded, a binding signal ([1]; ATPgS, strand 2 is RNA) of 57 % unfolded and a binding signal ([1]; nt-free, strand 2 is RNA) of 48 % unfolded.

For “TTTTTTTTTTTTGGGTTAGGGTTAGGGTTAGGGTTTGGCGACGGCAGCGAGGC / GCCTCGCTGCCGTCGCCA [pd-hGQ12T-5']”, the binding signal (% unfolded at 1 uM) ([1]; ATPgS, 50 mM K+) was 30 and the binding signal (% unfolded at 1 uM) ([1]; nt-free, 50 mM K+) was 21.

For “TTTTTTTTTTTTTTTTGGCGACGGCAGCGAGGC / GCCTCGCTGCCGTCGCCA [pd-polyT15-5']”, the binding signal (% bound at 1 uM) ([3]; 1 mM ATPgS, 50 mM K+) was 53.
